Assay in all cases: cell-based or functional assay
Test [1] has as its target T1, HIV-1 93MW960 gp120 (HIV-1, isolate 93MW960).
The target in test [2] is T2, HIV-1 SF162 gp120 (HIV-1, isolate SF162, UniProt P19550 32-502).
Test [3] concerns the target T3, HIV-1 89.6 gp120 (HIV-1, isolate 89.6, UniProt Q73372 32-508).
Test [4] has as its target T4, HIV-1 BaL gp120 (HIV-1, isolate BaL).
For test [5], the target named is T5, HIV-1 JR-FL gp120 (HIV-1, isolate JR-FL).
Test [6] addresses T5, HIV-1 JR-FL gp120. The source holds these as a separate data set.
Test [7] concerns the target HIV-1 67970 gp120 (HIV-1, isolate 67970).
Test [8] has as its target T2, HIV-1 SF162 gp120. Details: unit not given beside the values.
Test [9] concerns the target T3, HIV-1 89.6 gp120. Set-up: unit not given beside the values.
In test [10] the target is T1, HIV-1 93MW960 gp120. This is another data set of the same source.
For test [11], the target named is T2, HIV-1 SF162 gp120. The source holds these as a separate data set.
Test [12] addresses T3, HIV-1 89.6 gp120. This is another data set of the same source.
The target in test [13] is T4, HIV-1 BaL gp120. The source holds these as a separate data set.
For test [14], the target named is T5, HIV-1 JR-FL gp120. This is another data set of the same source.

B1: F425-A1g8 IgA1 antibody variant (antibody)
heavy: QEQLVESGGGVVQPGRSLRLSCEASGFIFSAFVLHWVRQAPGKGLEWVAVVWYDGNSKYYADSVKGRFTISRDTSQNTLHLQMDSLRPEDTAVYYCAREWVADDDTFDGFDVWGQGTMVTVSSASLTSPKVFPLSLCSTQPDGNVVIACLVQGFFPQEPLSVTWSESGQGVTARNFPPSQDASGDLYTTSSQLTLPATQCLAGKSVTCHVKHYTNPSQDVTVPCPVPSTPPTPSPSTPPTPSPSCCHPRLSLHRPALEDLLLGSEANLTCTLTGLRDASGVTFTWTPSSGKSAVQGPPDRDLCGCYSVSSVLSGCAEPWNHGKTFTCTAAYPESKTPLTATLSKSGNTFRPEVHLLPPPSEELALNELVTLTCLARGFSPKDVLVRWLQGSQELPREKYLTWASRQEPSQGTTTFAVTSILRVAAEDWKKGDTFSCMVGHEALPLAFTQKTIDRLAGKPTHVNVSVVMAEVDGTCY
light: not shown
As for B1, in test [1], the “IC50, ADCVI with neutrophils, 93MW960-infected PBMC” value was determined as 18.3 mg/L. Moreover, in test [2], the “IC50, ADCVI with neutrophils, SF162-infected PBMC” value is 6.1 mg/L. Further, the “IC50, ADCVI with neutrophils, 89.6-infected PBMC” value in test [3] is over 40 mg/L. Moreover, in test [4], the “IC50, ADCVI with neutrophils, BaL-infected PBMC” value is over 40 mg/L. Besides, the “IC50, ADCVI with neutrophils, JR-FL-infected PBMC” value in test [5] stood at 16.6 mg/L. Moreover, in [6], the “IC50, neutralization of HIV-1 JR-FL (TZM-bl cells, no sCD4)” value is 1.73 mg/L. Also, the “IC50, neutralization of HIV-1 67970 (TZM-bl cells, no sCD4)” value in test [7] was 23.3 mg/L.

B2: F425-A1g8 IgG1 antibody variant (antibody, V domains shown)
VH: QEQLVESGGGVVQPGRSLRLSCEASGFIFSAFVLHWVRQAPGKGLEWVAVVWYDGNSKYYADSVKGRFTISRDTSQNTLHLQMDSLRPEDTAVYYCAREWVADDDTFDGFDVWGQGTMVTVSS
VL: EIVLSQSPATLSLSPGERATLSCRASQSVTNSLAWYQQKPGQAPRLLIYDASNRATGIPARFSGSGSGTDFTLTISSLEPEDFAVYYCQQRSNWPPEVTFGPGTKVDIKR
As for B2, the “IC50, ADCVI with neutrophils, 93MW960-infected PBMC” value in [1] turned out to be 9.5 mg/L. Further, the “IC50, ADCVI with neutrophils, SF162-infected PBMC” value in test [2] was over 40 mg/L. Further, in [3], the “IC50, ADCVI with neutrophils, 89.6-infected PBMC” value was over 40 mg/L. Further, the “IC50, ADCVI with neutrophils, BaL-infected PBMC” value in test [4] is over 40 mg/L. In test [5], the “IC50, ADCVI with neutrophils, JR-FL-infected PBMC” value was over 40 mg/L. Moreover, the “IC50, neutralization of HIV-1 JR-FL (TZM-bl cells, no sCD4)” value in test [6] was over 40 mg/L. Moreover, in test [7], the “IC50, neutralization of HIV-1 67970 (TZM-bl cells, no sCD4)” value is over 40 mg/L.

B3: b12 IgA2 purified from CHO cells (antibody, V domains shown)
VH: QVQLVQSGAEVKKPGASVKVSCQASGYRFSNFVIHWVRQAPGQRFEWMGWINPYNGNKEFSAKFQDRVTFTADTSANTAYMELRSLRSADTAVYYCARVGPYSWDDSPQDNYYMDVWGQGTTVIVSS
VL: EIVLTQAPGTLSLSPGERATFSCRSSHSIRSRRVAWYQHKPGQAPRLVIHGVSNRASGISDRFSGSGSGTDFTLTITRVEPEDFALYYCQVYGASSYTFGQGTKLERKR
As for B3, the “IC90, neutralization of HIV SF162 (TZM-bl assay)” value (from here on “IC90, neutralization of HIV SF162”) in [8] came to 1.03. Besides, the “IC90, neutralization of HIV 89.6 (TZM-bl assay)” value in test [9] is 6.75. Also, in test [10], the “IC50, ADCVI assay with PMN (+ PMN), 93MW960-infected PBMC” value (“IC50 … (+ PMN), 93MW960-infected PBMC” below) was determined as 10 mg/L and the “IC50, ADCVI assay without PMN (- PMN), 93MW960-infected PBMC” value is over 20 mg/L. In addition, in test [11], the “IC50, ADCVI assay with PMN (+ PMN), SF162-infected PBMC” value (“IC50 … (+ PMN), SF162-infected PBMC” for short) is 0.3 mg/L and the “IC50, ADCVI assay without PMN (- PMN), SF162-infected PBMC” value was 9.5 mg/L. In addition, in test [12], the “IC50, ADCVI assay with PMN (+ PMN), 89.6-infected PBMC” value (“IC50 … (+ PMN), 89.6-infected PBMC” below) worked out at 14.5 mg/L and the “IC50, ADCVI assay without PMN (- PMN), 89.6-infected PBMC” value is over 20 mg/L. Also, in [13], the “IC50, ADCVI assay with PMN (+ PMN), BaL-infected PBMC” value (from here on “IC50 … (+ PMN), BaL-infected PBMC”) is 2.1 mg/L and the “IC50, ADCVI assay without PMN (- PMN), BaL-infected PBMC” value is over 20 mg/L. Besides, in [14], the “IC50, ADCVI assay with PMN (+ PMN), JR-FL-infected PBMC” value was over 20 mg/L and the “IC50, ADCVI assay without PMN (- PMN), JR-FL-infected PBMC” value was over 20 mg/L.

B4: b12 IgA2 purified from milk (antibody, V domains shown)
VH: QVQLVQSGAEVKKPGASVKVSCQASGYRFSNFVIHWVRQAPGQRFEWMGWINPYNGNKEFSAKFQDRVTFTADTSANTAYMELRSLRSADTAVYYCARVGPYSWDDSPQDNYYMDVWGQGTTVIVSS
VL: EIVLTQAPGTLSLSPGERATFSCRSSHSIRSRRVAWYQHKPGQAPRLVIHGVSNRASGISDRFSGSGSGTDFTLTITRVEPEDFALYYCQVYGASSYTFGQGTKLERKR
In the case of B4, the “IC90, neutralization of HIV SF162” value in test [8] worked out at 0.79. Moreover, in test [9], the “IC90, neutralization of HIV 89.6 (TZM-bl assay)” value came to 8.37. Besides, in test [10], the “IC50 … (+ PMN), 93MW960-infected PBMC” value is 17.5 mg/L and the “IC50, ADCVI assay without PMN (- PMN), 93MW960-infected PBMC” value was over 20 mg/L. In [11], the “IC50 … (+ PMN), SF162-infected PBMC” value stood at 0.3 mg/L and the “IC50, ADCVI assay without PMN (- PMN), SF162-infected PBMC” value came to 2.1 mg/L. In [12], the “IC50 … (+ PMN), 89.6-infected PBMC” value turned out to be 17.1 mg/L and the “IC50, ADCVI assay without PMN (- PMN), 89.6-infected PBMC” value was over 20 mg/L. Moreover, in [13], the “IC50 … (+ PMN), BaL-infected PBMC” value is 2.2 mg/L and the “IC50, ADCVI assay without PMN (- PMN), BaL-infected PBMC” value is 13.1 mg/L. In addition, in test [14], the “IC50, ADCVI assay with PMN (+ PMN), JR-FL-infected PBMC” value was over 20 mg/L and the “IC50, ADCVI assay without PMN (- PMN), JR-FL-infected PBMC” value was over 20 mg/L.

B5: b12 IgA2 expressed in milk (antibody, V domains shown)
VH: QVQLVQSGAEVKKPGASVKVSCQASGYRFSNFVIHWVRQAPGQRFEWMGWINPYNGNKEFSAKFQDRVTFTADTSANTAYMELRSLRSADTAVYYCARVGPYSWDDSPQDNYYMDVWGQGTTVIVSS
VL: EIVLTQAPGTLSLSPGERATFSCRSSHSIRSRRVAWYQHKPGQAPRLVIHGVSNRASGISDRFSGSGSGTDFTLTITRVEPEDFALYYCQVYGASSYTFGQGTKLERKR
As for B5, the “IC90, neutralization of HIV SF162” value in test [8] amounted to 0.34. In addition, in test [9], the “IC90, neutralization of HIV 89.6 (TZM-bl assay)” value is 1.85. Also, in [10], the “IC50 … (+ PMN), 93MW960-infected PBMC” value stood at 3.3 mg/L and the “IC50, ADCVI assay without PMN (- PMN), 93MW960-infected PBMC” value is over 20 mg/L. Further, in test [11], the “IC50 … (+ PMN), SF162-infected PBMC” value was 0.4 mg/L and the “IC50, ADCVI assay without PMN (- PMN), SF162-infected PBMC” value stood at 6.6 mg/L. Also, in [12], the “IC50 … (+ PMN), 89.6-infected PBMC” value stood at 3.9 mg/L and the “IC50, ADCVI assay without PMN (- PMN), 89.6-infected PBMC” value worked out at 4.8 mg/L. In test [13], the “IC50 … (+ PMN), BaL-infected PBMC” value came to 2.3 mg/L and the “IC50, ADCVI assay without PMN (- PMN), BaL-infected PBMC” value was found to be 19.3 mg/L. Besides, in [14], the “IC50, ADCVI assay without PMN (- PMN), JR-FL-infected PBMC” value came out at 9.6 mg/L.
